Experimental data from patent US20110020273A1 (published 2011).

Molecular target: T1, CD20 (human, UniProt P11836 1-297)
T1 sequence (looked up): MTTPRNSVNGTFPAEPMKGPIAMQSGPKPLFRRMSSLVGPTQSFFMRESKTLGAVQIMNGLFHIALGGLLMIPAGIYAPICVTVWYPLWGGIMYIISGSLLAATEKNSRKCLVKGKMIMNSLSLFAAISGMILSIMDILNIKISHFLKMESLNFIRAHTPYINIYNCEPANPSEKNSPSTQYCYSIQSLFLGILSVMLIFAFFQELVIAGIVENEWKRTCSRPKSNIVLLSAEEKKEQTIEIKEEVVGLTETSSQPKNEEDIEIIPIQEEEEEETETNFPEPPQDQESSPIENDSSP
Test: cell-based or functional assay

B1: veltuzumab (antibody, V domains shown)
VH: QVQLQQSGAEVKKPGSSVKVSCKASGYTFTSYNMHWVKQAPGQGLEWIGAIYPGMGDTSYNQKFKGKATLTADESTNTAYMELSSLRSEDTAFYYCARSTYYGGDWYFDVWGQGTTVTVSS
VL: DIQLTQSPSSLSASVGDRVTMTCRASSSVSYIHWFQQKPGKAPKPWIYATSNLASGVPVRFSGSGSGTDYTFTISSLQPEDIATYYCQQWTSNPPTFGGGTKLEIK
EC50, in vitro proliferation of Jeko-1 cells: 1.5 nM
